Results: patent publication US20090036364A1
Square brackets hold non-standard residues; d marks the D form. Ends that are not written are not given here.

What was measured:
GIP receptor = target: T1, GIP receptor; assay: GIP receptor binding assay
T1 sequence (P48546 whole entry, species assumed, looked up): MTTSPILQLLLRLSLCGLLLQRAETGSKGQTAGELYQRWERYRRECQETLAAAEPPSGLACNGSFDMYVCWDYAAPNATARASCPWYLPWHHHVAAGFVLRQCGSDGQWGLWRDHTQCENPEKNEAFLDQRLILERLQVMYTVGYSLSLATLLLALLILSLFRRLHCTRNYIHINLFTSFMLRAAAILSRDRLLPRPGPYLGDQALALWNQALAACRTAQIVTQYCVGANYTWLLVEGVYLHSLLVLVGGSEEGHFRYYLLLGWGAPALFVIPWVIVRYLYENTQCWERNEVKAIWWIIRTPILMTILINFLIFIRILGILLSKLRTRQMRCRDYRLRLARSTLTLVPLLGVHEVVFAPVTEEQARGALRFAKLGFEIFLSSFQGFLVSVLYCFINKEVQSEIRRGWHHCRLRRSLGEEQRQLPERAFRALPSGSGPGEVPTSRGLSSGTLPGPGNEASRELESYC

GLP-1 receptor, P32301 = target: T2, GLP-1 receptor, P32301; assay: GLP-1 receptor binding, displacement of [125I]GLP-1 on RINm5F cell membranes
T2 chain: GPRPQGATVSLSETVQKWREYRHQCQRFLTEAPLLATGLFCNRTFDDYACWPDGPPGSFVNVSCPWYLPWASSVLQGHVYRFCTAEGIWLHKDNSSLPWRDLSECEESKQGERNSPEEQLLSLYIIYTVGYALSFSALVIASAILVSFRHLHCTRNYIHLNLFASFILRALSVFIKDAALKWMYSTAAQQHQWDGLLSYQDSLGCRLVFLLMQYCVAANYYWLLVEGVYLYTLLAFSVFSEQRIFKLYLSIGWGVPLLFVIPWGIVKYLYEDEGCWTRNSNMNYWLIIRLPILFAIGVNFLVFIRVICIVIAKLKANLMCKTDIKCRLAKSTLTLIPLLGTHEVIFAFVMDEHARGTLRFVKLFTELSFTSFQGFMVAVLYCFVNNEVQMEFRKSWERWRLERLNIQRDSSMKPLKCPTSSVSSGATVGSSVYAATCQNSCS

Binder | GIP RBA (GIP receptor) | GLP RBA (GLP-1 receptor, P32301)
Y[dA]EGTFISDYSIAMDKIHQQDFVNWLLAQKPKKIRYS [0601GIP4233, [dAla2] GIP-(1-30)-fGLP-1v2-(31-37)] | 0.1 nM | 
YAEGTFISDYSIAMDKIHQQDFVNWLLAQKPSSGAPPPS (modifications not checked) [0601GIP3794, (D-Ala2)GIP(1-30)-… amide form] |  | 1000
